Values quoted from earlier work as cited in patent publication US20110020225A1, “POROUS POLYMER PARTICLES IMMOBILIZED WITH CHARGED MOLECULES AND METHOD FOR PREPARING THE SAME” (KOREA RESEARCH INSTITUTE OF BIOSCIENCE AND BIOTECHNOLOGY, priority 2007, published 2011).

Settings: negative charge at pH 7.4

B1: ovalbumin-fluorescent dye: ovalbumin-fluorescent dye (45 kDa, pI=4.6) having a negative charge at pH 7.4 (conjugate, UniProt P01012 2-386, looked up)
Ovalbumin: GSIGAASMEFCFDVFKELKVHHANENIFYCPIAIMSALAMVYLGAKDSTRTQINKVVRFDKLPGFGDSIEAQCGTSVNVHSSLRDILNQITKPNDVYSFSLASRLYAEERYPILPEYLQCVKELYRGGLEPINFQTAADQARELINSWVESQTNGIIRNVLQPSSVDSQTAMVLVNAIVFKGLWEKAFKDEDTQAMPFRVTEQESKPVQMMYQIGLFRVASMASEKMKILELPFASGTMSMLVLLPDEVSGLEQLESIINFEKLTEWTSSNVMEERKIKVYLPRMKMEEKYNLTSVLMAMGITDVFSSSANLSGISSAESLKISQAVHAAHAEINEAGREVVGSAEAGVDAASVSEEFRADHPFLFCIKHIATNAVLFFGRCVSP
modifications: fluorescent dye
  pI: 4.6
